Test results reported in the supplement of paper PMC7125110.
± gives the standard error. Variants at the floor of the assay were thinned out.

B1: glmS ribozyme (parent)
chain: AUAAAAGCGCCAGAACUACAGAAAUGUAGUUGACGAGGAGGAGGUUUAUCGAAUUUUCGGCGGAUGCCUCCAAA

Variants of: B1
Experiment: self-cleavage kobs at 10000 uM GlcN6P; higher = faster cleavage; RNA array
Conditions: with glucosamine-6-phosphate
Summary of the method: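 Ribozyme variants carrying barcodes were transcribed in situ on sequenced MiSeq chips by E. coli RNA polymerase and tracked at 37 °C with a hybridised Cy3 probe. They were exposed to 40 μM to 10 mM glucosamine-6-phosphate in HEPES/KCl/Mg(OAc)2 buffer. kobs came from exponential decay fits of normalised per-tile medians, and kcat and KM from weighted Michaelis–Menten fits.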

Point of comparison: AUAAAAGCGCCAGAACUACAGAAAUGUAGUUCACGAGGAGGAGGUUUAUCGAAUUUUCGGCGGAUGCGUCGAAA, “self-cleavage kobs at 10000 uM GlcN6P” value 0.000123 ± 2.3e-05 s⁻¹. Against it:
- AUAAAAGCGCCAGAACUACAGAAAUGUAGUGGACGAGGAGGAGCUUUAUCGAAUUUUCGGCGGAUGCCUCCAAA — 2.5-fold lower, 4.96e-05 ± 1.3e-05 s⁻¹
- AUAAAAGCGCCAGAACUACAGAAAUGUAGGUGACGAGGAGGAGGUUUAUCGAAUGUUCGGCGGAUGCCUGCAAA — 2.7-fold lower, 4.53e-05 ± 1.9e-05 s⁻¹
- AUAAAAGCGCCAGAACUACAGAAAUGUAGUUCACGUGGAGGAGGUUUAUCGAAUUUUCGGCGGAUGCCGACAAA — within error, 0.000103 ± 2.4e-05 s⁻¹
- AUAAAAGCGCCAGAACUACAGAAAUGUAGUUGUCGAGGAGGAGAUUUAUCGAAUUUUCGGCGUAUGCCUCCAAA — lower, < 1e-05 s⁻¹
- AUAAAAGCGCCAGAACUACAGAAAUGUAGACGACGAGGAGGAGGUUUAUCGAGUUUUCGGCGGAUGCCUCCAAA — 33-fold higher, 0.00407 ± 0.0007 s⁻¹
- AUAAAAGCGCCAGAACUACAGAAAUGUAGUAGACGAGGAGGGGGUCUAUCGAAUUUUCGGCGGAUGCCUCCAAA — 3.3-fold higher, 0.000411 ± 9.2e-05 s⁻¹
- AUAAAAGCGCCAGAACUACAGAAAUGUAGUUCACGAGGAGGAGGUUUAUCGAAAUGUCGGCGGAUGCCUCCAAA — 3.6-fold lower, 3.42e-05 ± 1.1e-05 s⁻¹
- AUAAAAGCGCCAGAACUACAGAAAUGUAGUUGCCCAGGAGGAGGUUAAUCGAAUUUUCGGCGGAUGCCUCCAAA — lower, < 1e-05 s⁻¹
- AUAAAAGCGCCAGAACUACAGAAAUGUAGUUGGCGAAGAGGAGGUUUAUCGAAUUUUCGGCGGAUGCCGCCAAA — lower, < 1e-05 s⁻¹
- AUAAAAGCGCCAGAACUACAGAAAUGUAGUCGACGAGGAGGAGGAUUAUCGGAUUUUCGGCGGAUGCUUCCAAA — within error, 0.000129 ± 3.8e-05 s⁻¹
- AUAAAAGCGCCAGAACUACAGAAAUGUAGUUAACGAGGAGGAGGUUUAUCGAAUGUUCGGCGGAGUCCUGCAAA — 3.3-fold lower, 3.69e-05 ± 1.7e-05 s⁻¹
- AUAAAAGCGCCAGAACUACAGAAAUGUAGUUGCCGAUGAGGAGGUUUAUCGAAUUUUCGGCGGAUGCCUGCAAA — lower, < 1e-05 s⁻¹
- AUAAAAGCGCCAGAACUACAGAAAUGUAGUUCACAAGGAGGAGGUUUAUCGAAUUUUCGACGGAUGCCUCCAAA — lower, < 1e-05 s⁻¹
- AUAAAAGCGCCAGAACUACAGAAAUGUAGUUAUCGAUGAGGAGGUUUAUCGAAUUUUCGGCGGAUGCCUCCAAA — lower, < 1e-05 s⁻¹
- AUAAAAGCGCCAGAACUACAGAAAUGUAGUUGAGUAGAAGGAGGUUUAUAGAAUUUUCGGCGGAUGCCGCCAAA — 3-fold higher, 0.000375 ± 5.4e-05 s⁻¹
- AUAAAAGCGCCAGAACUACAGAAAUGUAGUUCACGAGGAGGAGGUUUAUCGAGUUUUCGGCGGAUGGCUCCAAA — 3.3-fold lower, 3.72e-05 ± 1.3e-05 s⁻¹
- AUAAAAGCGCCAGAACUACAGAAAUGUAGUCGACGAGGAGUAGGUUUAUCGAGUUUUCGGCGGAUGCCUCCAAA — 2.4-fold higher, 0.000299 ± 8.8e-05 s⁻¹
- AUAAAAGCGCCAGAACUACAGAAAUGUAGCUGACGAGGAAGAGGUUUAUCGACUUUUUGGCGGAUGCCUCCAAA — lower, < 1e-05 s⁻¹
- AUAAAAGCGCCAGAACUACAGAAAUGUAGUUGGCUAGGGGGAGGUUUAUCGAUUUUUCGGCCGAUGCCUCCAAA — lower, < 1e-05 s⁻¹
- AUAAAAGCGCCAGAACUACAGAAAUGUAGUUGAUGAGGAGGAUGUUUAUCGAAUUUGCGGCGGAGGCCUCCAAA — lower, < 1e-05 s⁻¹
- AUAAAAGCGCCAGAACUACAGAAAUGUAGUUUACGAGGGGGAGGUUUAUCGAAUUUUCGGCGGAUGCCACCAAA — within error, 0.000121 ± 3.2e-05 s⁻¹
- AUAAAAGCGCCAGAACUACAGAAAUGUAGUUGUCGAGGAGGAGGUUUAUCGAUUUUUCUGCGGAUGCCUCCAAA — lower, < 1e-05 s⁻¹
- AUAAAAGCGCCAGAACUACAGAAAUGUAGUUAACGAGGAGGAGGUUGAUCGGAUUUUCGGGGGAUGCCUCGAAA — 1.8-fold lower, 6.89e-05 ± 2.1e-05 s⁻¹
- AUAAAAGCGCCAGAACUACAGAAAUGUAGUAGAUGAGGAGGAGAUUUAUCGAAUUUUCGGCGGAUGCCUCCAAA — lower, < 1e-05 s⁻¹
- AUAAAAGCGCCAGAACUACAGAAAUGUAGUUUACGAGGAGGAGGUUUAUCGAGUUUUCGGCGGAUGGCUCCAAA — 1.9-fold higher, 0.000238 ± 3.8e-05 s⁻¹
- AUAAAAGCGCCAGAACUACAGAAAUGUAGUUGAACAGGAGGAGGUUUUUCGAAUUUUCGGCGGAUGCCUCCAAA — lower, < 1e-05 s⁻¹
- AUAAAAGCGCCAGAACUACAGAAAUGUAGGUGACGAUGAGGAGGUUUAUCGUAUUUUCAGCGGAUGCCUCCAAA — lower, < 1e-05 s⁻¹
- AUAAAAGCGCCAGAACUACAGAAAUGUAGUUUACGAGGAGGAUGUUUAUCGAGUUUUCGGCGUGUUCCUCCAAA — lower, < 1e-05 s⁻¹
- AUAAAAGCGCCAGAACUACAGAAAUGUAGUUGAAGAGGAGGAGGUUUAUCGAAUUUUGGGCGGAUGCGUCCAAA — 4.9-fold higher, 0.000608 ± 0.00016 s⁻¹
- AUAAAAGCGCCAGAACUACAGAAAUGUAGAUGACGAGGAGGAGGUUUAUCGAAUUUUCGGCGGAAGCCUCUAAA — 3.7-fold higher, 0.000453 ± 8.5e-05 s⁻¹
- AUAAAAGCGCCAGAACUACAGAAAUGUAGUUGUCGAGGAGGAGGUUUAUCGAAUUUUCGGCUGAUGCCUCAAAA — lower, < 1e-05 s⁻¹
- AUAAAAGCGCCAGAACUACAGAAAUGUAGUUGUCGAGGAGGAGGUUUAUCGACUUUUCGGCUGAUGCCUCCAAA — lower, < 1e-05 s⁻¹
- AUAAAAGCGCCAGAACUACAGAAAUGUAGUUCACGUAGAGGAGGUUUAUCGAAUUUUCGGAGGAUGUCUCCAAA — within error, 9.54e-05 ± 1.4e-05 s⁻¹
- AUAAAAGCGCCAGAACUACAGAAAUGUAGUGGACGAGGAGGAGGUUUAUCGAAUUCUUGGCGGAUGCCUCCAAA — 1.9-fold lower, 6.36e-05 ± 1.2e-05 s⁻¹
- AUAAAAGCGCCAGAACUACAGAAAUGUAGUCGACAAGGACGAGGUUUAUCGAAUUUUUGACGGAUGCCUCCAAA — lower, < 1e-05 s⁻¹
- AUAAAAGCGCCAGAACUACAGAAAUGUAGAUGACGAGGAGGAGGUUUAUCGAAUUUUCGGAGGAUGCCUCCAAA — lower, < 1e-05 s⁻¹
